According to publication PMC3953389, “Dimerization of VirD2 Binding Protein Is Essential for Agrobacterium Induced Tumor Formation in Plants” (PLoS Pathogens, 2014):

How the values were obtained:
[1] = biological target: C-terminal (HEPN) domain of VBP (Agrobacterium tumefaciens C58); assay: SEC; size-exclusion chromatography of the purified protein, apparent mass against molecular weight standards; 200 mM NaCl buffers (VBP: 20 mM Tris-HCl pH 8.0, 5% glycerol; HEPN: 30 mM CHES pH 9.0, 5% glycerol; NT: 30 mM Tris-HCl pH 7.5)
[2] = biological target: C-terminal (HEPN) domain of VBP (Agrobacterium tumefaciens C58); assay: AUC; sedimentation velocity, 1 mg/ml, 40,000 rpm, 24°C, absorbance at 280 nm, Sedfit
[3] = biological target: VirD2-binding protein (VBP), full-length, wild type, 6His-tagged (Agrobacterium tumefaciens C58); assay: SEC; size-exclusion chromatography of the purified protein, apparent mass against molecular weight standards; 200 mM NaCl buffers (VBP: 20 mM Tris-HCl pH 8.0, 5% glycerol; HEPN: 30 mM CHES pH 9.0, 5% glycerol; NT: 30 mM Tris-HCl pH 7.5)
[4] = biological target: VirD2-binding protein (VBP), full-length, wild type, 6His-tagged (Agrobacterium tumefaciens C58); assay: AUC; sedimentation velocity, 1 mg/ml, 40,000 rpm, 24°C, absorbance at 280 nm, Sedfit
[5] = biological target: T1, VBP (VirD2-binding protein) (Agrobacterium fabrum, UniProt Q7CW19); assay: isothermal titration calorimetry
T1 construct: gene Atu4856; full-length VBP with 6His tag (pET32a, E. coli BL21(DE3)); homodimer 75 kDa; predicted NT domain aa 10-133, HEPN domain aa 159-279

Molecule “C-terminal (HEPN) domain of VBP (domain or fragment)” has a stoichiometry N [1] of 2 and a stoichiometry N [2] of 2.
“VirD2-binding protein (VBP), full-length, wild type, 6His-tagged (natural protein)” gave a stoichiometry N [3] of 2 and a stoichiometry N [4] of 2.
`Nc1ncnc2c1ncn2[C@@H]1O[C@H](COP(=O)(O)OP(=O)(O)NP(=O)(O)O)[C@@H](O)[C@H]1O` [AMPPNP] was tested, and the Kd [5] was 2000 nM.
